# Experimental data taken from patent US20220249369.
# T1: OmpTs, DABCYL-RRSRRV-K(5-FAM)
# T1 chain: RRSRRVK
# B1: Outer Membrane Protease T (protein)
# chain: STETLSFTPDNINADISLGTLSGKTKERVYLAEEGGRKVSQLDWKFNNAAIIKGAINWDLMPQISIGAAGWTTLGSRGGNMVDQDWMDSSNPGTWTDESRHPDTQLNYANEFDLNIKGWLLNEPNYRLGLMAGYQESRYSFTARGGSYIYSSEEGFRDDIGSFPNGERAIGYKQRFKMPYIGLTGSYRYEDFELGGTFKYSGWVESSDNDEHYDPGKRITYRSKVKDQNYYSVAVNAGYYVTPNAKVYVEGAWNRVTNKKGNTSLYDHNNNTSDYSKNGAGIENYNFITTAGLKYTF
# Biological target: T1, OmpTs, DABCYL-RRSRRV-K(5-FAM)
protein,measurement,value
B1,cleavage of quenched fluorescent substrate,a substrate (RRSRRVK (SEQ ID NO:9)) specific for the E. coli surface protease OmpT
